Here are results for one molecule from PMC4838544 (Gene, 2016).

In the assay the target is T1, E. coli topoisomerase I with a N-terminus 6x-His tag (E. coli, UniProt P06612 1-865).
T1 sequence (looked up): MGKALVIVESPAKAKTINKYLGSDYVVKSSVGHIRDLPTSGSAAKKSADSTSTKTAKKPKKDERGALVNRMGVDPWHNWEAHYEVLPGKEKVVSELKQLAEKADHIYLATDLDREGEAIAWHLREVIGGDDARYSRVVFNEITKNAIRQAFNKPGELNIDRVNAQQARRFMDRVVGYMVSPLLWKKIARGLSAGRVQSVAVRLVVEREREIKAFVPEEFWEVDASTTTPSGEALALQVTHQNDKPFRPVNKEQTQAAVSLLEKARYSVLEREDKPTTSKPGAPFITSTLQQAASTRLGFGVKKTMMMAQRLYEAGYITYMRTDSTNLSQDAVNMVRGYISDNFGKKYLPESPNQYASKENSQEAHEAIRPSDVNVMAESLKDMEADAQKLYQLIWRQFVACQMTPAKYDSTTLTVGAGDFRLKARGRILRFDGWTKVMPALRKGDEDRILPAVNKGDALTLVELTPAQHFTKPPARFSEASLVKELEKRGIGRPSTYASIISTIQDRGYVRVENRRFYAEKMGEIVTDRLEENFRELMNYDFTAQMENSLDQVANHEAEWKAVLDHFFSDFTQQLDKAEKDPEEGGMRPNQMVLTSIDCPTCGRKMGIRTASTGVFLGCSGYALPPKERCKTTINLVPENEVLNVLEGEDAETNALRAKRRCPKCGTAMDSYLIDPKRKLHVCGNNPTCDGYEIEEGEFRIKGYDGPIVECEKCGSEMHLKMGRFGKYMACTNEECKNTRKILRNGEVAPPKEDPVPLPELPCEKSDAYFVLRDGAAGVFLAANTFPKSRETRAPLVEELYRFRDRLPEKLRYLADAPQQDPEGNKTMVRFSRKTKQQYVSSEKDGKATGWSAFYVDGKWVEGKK
In words: pull-down.

B1: Purified E. coli RecA (natural protein)
chain: AIDENKQKALAAALGQIEKQFGKGSIMRLGEDRSMDVETISTGSLSLDIALGAGGLPMGRIVEIYGPESSGKTTLTLQVIAAAQREGKTCAFIDAEHALDPIYARKLGVDIDNLLCSQPDTGEQALEICDALARSGAVDVIVVDSVAALTPKAEIEGEIGDSHMGLAARMMSQAMRKLAGNLKQSNTLLIFINQIRMKIGVMFGNPETTTGGNALKFYASVRLDIRRIGAVKEGENVVGSETRVKVVKNKIAAPFKQAEFQILYGEGINFYGELVDLGVKEKLIEKAGAWYSYKGEKIGQGKANATAWLKDNPETAKEIEKKVRELLLSNPNSTPDFSVDDSEGVAETNEDF
For the molecule B1, the binding result is on record as “binds”.
